Values quoted from earlier work as cited in article PMC4019842.

Target: holo-transferrin (Homo sapiens) (UniProt P02787)
Chain of UniProt P02787 (P02787 20-698): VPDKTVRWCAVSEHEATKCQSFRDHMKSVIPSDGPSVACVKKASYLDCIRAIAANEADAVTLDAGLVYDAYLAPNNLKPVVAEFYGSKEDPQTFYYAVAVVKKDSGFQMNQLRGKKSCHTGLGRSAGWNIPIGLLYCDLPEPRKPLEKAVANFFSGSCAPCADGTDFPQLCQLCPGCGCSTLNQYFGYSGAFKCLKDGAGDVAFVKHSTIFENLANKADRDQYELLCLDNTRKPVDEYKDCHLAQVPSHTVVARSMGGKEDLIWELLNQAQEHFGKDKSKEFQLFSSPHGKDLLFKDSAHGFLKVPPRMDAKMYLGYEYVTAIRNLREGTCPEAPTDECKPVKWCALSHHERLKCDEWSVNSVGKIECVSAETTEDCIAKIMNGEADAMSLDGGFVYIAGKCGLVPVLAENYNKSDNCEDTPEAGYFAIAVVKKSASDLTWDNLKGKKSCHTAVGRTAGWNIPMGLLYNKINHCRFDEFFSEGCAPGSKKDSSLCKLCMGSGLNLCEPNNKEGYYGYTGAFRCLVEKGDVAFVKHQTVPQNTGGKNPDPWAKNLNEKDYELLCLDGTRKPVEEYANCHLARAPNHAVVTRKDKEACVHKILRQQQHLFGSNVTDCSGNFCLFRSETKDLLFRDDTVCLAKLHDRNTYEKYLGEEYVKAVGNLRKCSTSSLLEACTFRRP

TFR2 (from UniProt Q9UP52)
Kd: 30 nM
